Measurements taken from PMC10206775.

What was measured:
[1] = biological target: BmTFF3 (β-subunit of βγ-CAT) (Bombina maxima (endogenous in skin secretions))
[2] = biological target: Bombina maxima IgG Fc-binding protein (FCGBP) (Bombina maxima (endogenous in skin secretions)); test: BLI; FCGBP (10 μg/ml, 0.01 M sodium acetate pH 4.0) amine-coupled to AR2G biosensors; βγ-CAT 1000-31.25 nM in PBS, association 300 s, dissociation 180 s; global fit, 1:1 binding model

Q: How did the dye release from calcein liposomes (fluorescence at 518 nm, % of maximum) by BmALP1 polymer (50 nM) with BmTFF3 (200 nM) and FCGBP at 25, 50 and 150 nM [1] turn out when “BmALP1 (α-subunit of βγ-CAT) (natural protein)” was run?
A: 76.8%

Q: βγ-CAT complex (BmALP1 and BmTFF3) was tested. Which Kd [2] did it give?
A: 21.2 nM
